These results are taken from patent US20160222079A1 (GENOR BIOPHARMA, published 2016).

For this experiment, the target named is T1, GLP-1 receptor (GLP-1R) on the surface of mouse beta pancreatic tumor cells β-TC-6 (mouse, UniProt O35659 22-463).
T1 construct: whole, on cells; Endogenous receptor of the mouse cell line
T1 sequence (looked up): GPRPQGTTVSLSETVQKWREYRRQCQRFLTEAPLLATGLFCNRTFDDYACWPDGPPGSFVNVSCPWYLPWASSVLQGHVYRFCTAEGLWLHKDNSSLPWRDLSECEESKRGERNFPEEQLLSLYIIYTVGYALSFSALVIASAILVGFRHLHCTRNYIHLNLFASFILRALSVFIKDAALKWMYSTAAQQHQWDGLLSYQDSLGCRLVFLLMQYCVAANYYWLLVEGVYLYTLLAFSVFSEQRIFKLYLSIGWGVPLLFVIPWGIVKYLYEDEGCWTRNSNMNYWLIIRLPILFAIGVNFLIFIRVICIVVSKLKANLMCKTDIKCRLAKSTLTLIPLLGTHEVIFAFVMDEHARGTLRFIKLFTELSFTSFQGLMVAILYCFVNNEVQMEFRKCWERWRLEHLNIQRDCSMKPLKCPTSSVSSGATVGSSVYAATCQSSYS
As to the kind of experiment: cell ELISA on fixed β-TC-6 cells, anti-human IgG-HRP detection. A general note: In an ELISA, binding on a coated surface is turned into a signal by an enzyme label.

B1: GLP-1-Fc-3 fusion protein (Fc fusion)
chain: HGEGTFTSDVSSYLEEQAAKEFIAWLVKGGGGGGGSGGGGSGGGGSVECPPCPAPPVAGPSVFLFPPKPKDTLMISRTPEVTCVVVDVSHEDPEVQFNWYVDGVEVHNAKTKPREEQFNSTFRVVSVLTVVHQDWLNGKEYKCKVSNKGLPAPIEKTISKTKGQPREPQVYTLPPSREEMTKNQVSLTCLVKGFYPSDIAVEWESNGQPENNYKTTPPMLDSDGSFFLYSKLTVDKSRWQQGNVFSCSVMHEALHNHYTQKSLSLSPG
notes: also called GLP-1-Fc (IgG2)
For B1, the binding result was “binds”.

B2: GLP-1-Fc-2 fusion protein (Fc fusion)
chain: HGEGTFTSDVSSYLEEQAAKEFIAWLVKGGGGGGGSGGGGSGGGGSERKCCVECPPCPAPPVAGPSVFLFPPKPKDTLMISRTPEVTCVVVDVSHEDPEVQFNWYVDGVEVHNAKTKPREEQFNSTFRVVSVLTVVHQDWLNGKEYKCKVSNKGLPAPIEKTISKTKGQPREPQVYTLPPSREEMTKNQVSLTCLVKGFYPSDIAVEWESNGQPENNYKTTPPMLDSDGSFFLYSKLTVDKSRWQQGNVFSCSVMHEALHNHYTQKSLSLSPG
notes: also called GLP-1-Fc (IgG2)
On to B2, for which the binding result is given as “binds”.

B3: GLP-1-Fc-1 fusion protein (Fc fusion)
chain: HGEGTFTSDVSSYLEEQAAKEFIAWLVKGGGGGGGSGGGGSGGGGSVECPPCPAPPVAGPSVFLFPPKPKDTLMISRTPEVTCVVVDVSHEDPEVQFNWYVDGVEVHNAKTKPREEQFNSTFRVVSVLTVVHQDWLNGKEYKCAVSNKGLPAPIEKTISKTKGQPREPQVYTLPPSREEMTKNQVSLTCLVKGFYPSDIAVEWESNGQPENNYKTTPPMLDSDGSFFLYSKLTVDKSRWQQGNVFSCSVMHEALHNHYTQKSLSLSPGK
notes: also called GLP-1-Fc (IgG2)
In the case of B3, the binding result was “binds”.
